Where “and” joins values, the source holds several entries; their conditions need not be identical. Equal entries are not always repeated.

The term IC50 denotes the concentration that gives 50% inhibition. Low readings indicate inhibition by little substance, high ones a need for much substance.

Assay [1] addresses T1, human CC-chemokine receptor 2 (CCR2), endogenous on THP-1 cells, THP-1 membranes and human blood cells (human, UniProt P41597 1-374).
T1 construct: whole, on cells; The isoform is not specified for THP-1 cells or PBMC; also called CKR-2; MCP-1RA
The assay is described as follows: competition with 0.1 nM [125I]MCP-1 on THP-1 cell membranes, filtration and scintillation counting. The procedure: FIG. 4 illustrates that mAb 1D9 inhibits [¹²⁵I]MCP-1 binding to THP-1 cell membranes. 3.0 μg of THP-1 membrane protein was incubated with 0.1 nM [¹²⁵I]MCP-1 in the presence of various concentrations of 1D9 or the isotype-matched anti-CXCR3 antibody 1C6. The amount of bound tracer was determined by separation of free from bound by filtration and scintillation counting. The data was analyzed to determine the IC₅₀ value by non-linear regression using a 4-parameter logistic equation with KaleidaGraph software.
MCP-1 binding was performed in a final volume of 0.1 ml of 50 mM Hepes pH 7.4, 1 mM CaCl₂, 5 mM MgCl₂, 0.02% sodium azide, 0.5% BSA (HBB), containing either 2.5 μg THP-1 membrane protein or 500,000 PBMC and 0.1 nM of [¹²⁵I]-MCP-1. Competition binding experiments were performed by including variable concentrations of unlabeled MCP-1, 1D9 antibody, or a negative control IgG2a. Nonspecific binding was determined following the addition of a 2500-fold excess of unlabeled MCP-1. […] The filters were washed in HBB further supplemented with 0.5 M NaCl, dried, and the amount of bound radioactivity determined by liquid scintillation counting. mAb 1D9 inhibits [¹²⁵I]MCP-1 binding to THP-1 cell membranes with an IC₅₀ of about 0.004 μg/ml (approximately 0.02 nM; FIG. 4) and to fresh PBMC with an IC₅₀ of 0.04 μg/ml (approximately 0.2 nM; FIG. 5).

The target of assay [2] is T2, CCR5 expressed on L1/2 transfectants (UniProt P51681 1-352, limits assumed).
T2 construct: whole, on cells; also called CCR5 transfectants
T2 sequence (P51681 whole entry): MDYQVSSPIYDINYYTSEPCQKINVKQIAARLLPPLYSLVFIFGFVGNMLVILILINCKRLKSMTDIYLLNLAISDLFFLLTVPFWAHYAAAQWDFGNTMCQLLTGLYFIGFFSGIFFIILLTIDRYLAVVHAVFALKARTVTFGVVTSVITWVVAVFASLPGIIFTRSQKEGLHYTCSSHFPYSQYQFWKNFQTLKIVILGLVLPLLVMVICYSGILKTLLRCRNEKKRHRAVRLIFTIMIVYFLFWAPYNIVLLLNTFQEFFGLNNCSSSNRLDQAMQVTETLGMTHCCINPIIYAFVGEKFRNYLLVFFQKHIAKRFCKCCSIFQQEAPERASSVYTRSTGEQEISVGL
Put plainly: flow cytometry on L1/2 transfectants, hybridoma supernatant. How it is done: (§1) For the staining of cultured transfectant cell lines 0.5×10⁶ cells in 50 μl were resuspended in PBS+1% FCS in a 96 well polystyrene V-bottom plate. 50 μl of primary antibody supernatants or HT medium (negative control) were added, and the samples were incubated at 4° C. for 30 min. 100 μl of PBS were added and the cells were pelleted by centrifugation and washed once with PBS. The pellet was resuspended in 100 μl PBS+1% FCS containing FITC-conjugated goat anti-mouse IgG antibody (a 1:250 dilution) and incubated for thirty minutes at […] in the dark. The cells were washed twice with PBS, resuspended in PBS, and analyzed by flow cytometry with a FacScan cytometer using the CellQuest software (Becton-Dickenson) Cells were fixed with PBS/1% formaldehyde if they were not to be analyzed the same day. Monoclonal antibodies 1D9 and 8G2 stain CCR2 transfectants but not CCR1 or CCR5 transfectants (FIGS. 1A-10).
Background: In flow cytometry, cells or beads pass a laser one at a time.

In assay [3] the target is T3, CCR1 expressed on L1/2 transfectants (UniProt P32246 1-355, limits assumed).
T3 construct: whole, on cells; also called CCR1 transfectants
T3 sequence (looked up): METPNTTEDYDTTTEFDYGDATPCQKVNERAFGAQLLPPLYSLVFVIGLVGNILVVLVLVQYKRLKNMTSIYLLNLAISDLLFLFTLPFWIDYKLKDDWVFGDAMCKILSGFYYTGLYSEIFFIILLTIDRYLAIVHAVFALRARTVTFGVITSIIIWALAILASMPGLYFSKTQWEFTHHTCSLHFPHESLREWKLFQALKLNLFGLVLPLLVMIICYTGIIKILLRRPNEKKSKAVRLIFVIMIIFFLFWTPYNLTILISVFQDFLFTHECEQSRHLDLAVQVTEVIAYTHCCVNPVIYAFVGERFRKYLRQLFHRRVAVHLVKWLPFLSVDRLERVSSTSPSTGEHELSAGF
Described as above. How it is done: as §1

Assay [4] addresses T1, human CC-chemokine receptor 2 (CCR2), …. The assay is described as follows: competition with 0.1 nM [125I]MCP-1 on fresh PBMC, filtration and scintillation counting. How it is done:
MCP-1 binding was performed in a final volume of 0.1 ml of 50 mM Hepes pH 7.4, 1 mM CaCl₂, 5 mM MgCl₂, 0.02% sodium azide, 0.5% BSA (HBB), containing either 2.5 μg THP-1 membrane protein or 500,000 PBMC and 0.1 nM of [¹²⁵I]-MCP-1. Competition binding experiments were performed by including variable concentrations of unlabeled MCP-1, 1D9 antibody, or a negative control IgG2a. Nonspecific binding was determined following the addition of a 2500-fold excess of unlabeled MCP-1. Samples were incubated for 60 minutes at room temperature, and bound and free tracer were separated by filtration through 96-well GF/B filterplates presoaked in 0.3% polyethyleneimine. The filters were washed in HBB further supplemented with 0.5 M NaCl, dried, and the amount of bound radioactivity determined by liquid scintillation counting. mAb 1D9 inhibits [¹²⁵I]MCP-1 binding to THP-1 cell membranes with an IC₅₀ of about 0.004 μg/ml (approximately 0.02 nM; FIG. 4) and to fresh PBMC with an IC₅₀ of 0.04 μg/ml (approximately 0.2 nM; FIG. 5).

T1 sequence (P41597 whole entry, canonical isoform): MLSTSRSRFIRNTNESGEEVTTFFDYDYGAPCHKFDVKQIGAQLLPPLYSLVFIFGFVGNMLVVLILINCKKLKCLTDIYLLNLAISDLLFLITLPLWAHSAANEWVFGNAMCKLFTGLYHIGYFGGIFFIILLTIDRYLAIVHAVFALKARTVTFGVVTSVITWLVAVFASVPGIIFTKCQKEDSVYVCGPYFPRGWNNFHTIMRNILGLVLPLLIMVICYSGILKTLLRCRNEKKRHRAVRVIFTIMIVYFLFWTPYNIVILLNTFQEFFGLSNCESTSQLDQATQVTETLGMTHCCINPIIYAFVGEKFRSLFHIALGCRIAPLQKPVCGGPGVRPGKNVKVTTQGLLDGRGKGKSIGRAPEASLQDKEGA

B1: murine monoclonal antibody LS132.1D9 (antibody, V domains shown)
VH: EVQLVESGGGLVQPKGSLKLSCAASGFSFNAYAMNWVRQAPGKGLEWVARIRTKNNNYATYYADSVKDRYTISRDDSESMLFLQMNNLKTEDTAMYYCVTFYGNGVWGTGTTVTVSS
VL: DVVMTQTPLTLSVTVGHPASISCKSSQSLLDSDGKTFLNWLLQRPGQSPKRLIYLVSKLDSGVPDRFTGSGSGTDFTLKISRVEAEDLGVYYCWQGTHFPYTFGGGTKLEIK
notes: Whole murine monoclonal antibody from hybridoma ATCC HB-12549, with a kappa light chain; The controls are called isotype-matched or murine IgG2a, which implies IgG2a; It was used as hybridoma supernatant in the FACS staining; also called mAb 1D9; mus-1D9
Consider B1, for which the IC50 is ~0.004 µg/mL and ~0.02 nM in assay [1]; 0.04 µg/mL and ~0.2 nM in assay [4]. Also, the binding result in assay [2] and in assay [3] was “no binding” each time.

For the origin of these results see patent publication US20130071381A1 (Takeda / Millennium, published 2013).
